The MegaScale stability set (Tsuboyama et al. 2023)

B1: EEHEE_rd4_0647 (parent)
chain: MQVTWGNVTVTFSNPEEAKKYAEKVARKLGGQVELHNGQFRIK
B2: HEEH_KT_rd6_0790 (parent)
chain: SEEEEEEWRRAKERGEEIIILGILWKPNDEEAERRIKEALRRV

Variants of: B1
Assay: folding stability dG (cDNA display proteolysis); higher = more stable
Details: PBS, room temperature

Folding stability dG [kcal/mol]: each site, then its substitutions
K43: C 3.45 | Q 2.59 | G 2.04 | D 1.93 | V 3.52 | W 2.67 | Y 2.88 | F 2.96 | S 2.64 | R 2.98 | P 1.8 | A 2.57 | I 3.52 | T 3.14 | E 2.28 | N 2.59 | H 2.66 | M 2.86 | L 3.2
G30: Y 1.81 | T 1.34 | E 1.59 | F 1.9 | A 1.88 | L 1.85 | K 2.4 | W 1.74 | N 2.63 | Q 2.12 | S 1.98 | P 1.04 | M 2.05 | D 1.91 | H 2.53 | C 3.02 | R 2.41 | V 1.45 | I 1.34
F40: T 0.626 | K 0.481 | R 0.666 | G 0.325 | W 3.25 | E 0.453 | C 1.51 | Q 0.812 | N 0.635 | A 0.89 | Y 3.2 | V 1.46 | S 0.308 | L 2.85 | P 0.658 | M 1.95 | H 1.07 | I 2.49 | D 0.455
G38: L 1.46 | S 1.6 | M 1.65 | I 0.887 | H 3.93 | P 0.661 | K 1.81 | Q 1.67 | V 0.809 | T 1.36 | E 1.44 | R 1.89 | C 2.88 | W 1.24 | D 1.91 | F 1.73 | N 2.46 | A 1.32 | Y 1.64
Q32: F 3.08 | W 3.18 | E 2.76 | Y 3.33 | N 2.4 | A 2.52 | D 2.11 | T 3.35 | R 2.89 | H 2.89 | C 3.47 | G 1.77 | P 1.33 | L 2.74 | S 3 | K 2.92 | V 3.29 | I 3.27 | M 2.78
N37: T 1.36 | G 2.32 | A 2.05 | P 1.58 | W 1.32 | L 2.14 | F 1.9 | Q 2.27 | V 1.39 | E 2.56 | I 1.41 | Y 1.7 | H 2.14 | M 2.11 | S 1.93 | K 2.26 | D 2.69 | R 1.92
V33: A 1.82 | K 0.686 | I 2.62 | E 0.359 | W 2.13 | S 1.11 | G 0.276 | C 1.95 | H 0.75 | P 1.22 | Q 0.541 | F 1.85 | T 1.22 | D 0.259 | N 0.506 | R 0.477 | Y 2.07 | M 1.86 | L 2.16
I42: W 1.13 | T 0.547 | C 1.95 | L 1.09 | F 1.1 | M 0.646 | Y 0.752 | S 0.574 | A 0.487 | V 2.52 | K 0.538 | H 0.692 | R 0.514 | G 0.609 | D 0.522 | Q 0.449 | E 0.453 | N 0.564 | P 0.784
L29: R 1.62 | G 1.17 | N 1.6 | F 2.66 | H 2.06 | A 1.76 | K 1.36 | Y 2.63 | V 2.77 | S 2.02 | W 2.5 | P 0.143 | C 2.92 | M 2.51 | I 2.96 | D 0.761 | Q 1.58 | E 1.33 | T 2.65
Q39: G 3.07 | E 2.72 | R 2.45 | S 2.65 | M 2.61 | A 2.73 | V 2.99 | I 3.09 | W 1.7 | C 2.68 | H 2.93 | Y 2.29 | D 1.96 | F 2.23 | T 2.69 | P 0.269 | L 2.1 | K 2.43 | N 2.75
H36: K 2.66 | C 3.37 | E 2.78 | F 2.79 | I 3.34 | R 2.58 | L 2.89 | A 2.51 | T 2.6 | Q 2.54 | D 2.53 | S 2.6 | V 3.35 | W 2.85 | N 2.33 | M 2.68 | G 1.8 | P 0.326 | Y 2.79
E34: D 2.11 | Y 2.78 | I 2.83 | M 2.22 | H 2.17 | W 2.2 | K 1.73 | S 2.23 | G 1.41 | N 1.6 | T 2.44 | V 2.81 | Q 2.25 | P 0.384 | A 1.94 | R 1.78 | F 2.6 | L 2.21
G31: W 2.39 | V 2.27 | E 1.46 | C 2.79 | Y 2.04 | K 1.8 | A 2.62 | F 2.21 | N 1.06 | Q 1.87 | I 2.01 | M 2.53 | T 2.03 | H 2.11 | S 2.19 | R 1.8 | P 0.55 | L 2.6 | D 1.05
L35: W 2.63 | E 2.5 | Y 3.14 | V 2.83 | G 1.48 | S 2.04 | D 1.84 | F 3.15 | H 2.1 | P 1.3 | I 2.83 | M 2.82 | K 2.11 | N 1.96 | C 2.78 | R 2.13 | T 2.24 | Q 2.28 | A 2.09
K28: R 2.98 | S 2.51 | W 3.23 | V 2.87 | Y 2.97 | T 2.54
R41: F 3.5 | Q 2.66 | C 2.94 | Y 3.35 | I 3.53 | K 2.53 | A 2.05 | H 3.02 | G 1.3 | S 2.11 | L 3.16 | E 2.25 | W 3.15 | N 2.37 | D 1.31 | V 3.5 | M 2.95 | P 0.495 | T 2.84

Variants of: B2
Assay: as above
Details: PBS, room temperature

Folding stability dG [kcal/mol]: each site, then its substitutions
E3: K 2.46 | G 2.33 | D 2.35 | F 2.37 | I 2.32 | H 2.33 | A 2.33
E2: P 2.21 | R 2.39 | V 2.33 | M 2.45 | I 2.44 | L 2.5 | W 2.54 | Y 2.58 | N 2.27 | S 2.61 | T 2.49 | K 2.19 | H 2.52 | A 2.2 | C 2.63 | G 2.34 | F 2.7 | D 2.16 | Q 2.29
S1: L 2.55 | T 2.36 | K 2.1 | F 2.71 | V 2.55 | Q 2.15 | W 2.77 | A 2.38 | R 2.18 | E 2.23 | C 2.82 | N 2.18 | I 2.61 | D 2.12 | M 2.5 | Y 2.74 | G 2.63 | P 2.23 | H 2.67
